pKd: −log10 of the molar value.

What is called pKd is the negative decadic logarithm of the Kd, by convention in mol/L. Read a low pKd as a high Kd.

Data set [1] addresses Homo sapiens nucleosome core particle (human) (UniProt P68431). The experiment in a line: fluorescence polarisation. A general note: Fluorescence polarisation rises when a labelled molecule tumbles more slowly, as on binding a larger partner.
Data set [2] deals with LANA peptide (Kaposi's Sarcoma Herpesvirus). The experiment in a line: fluorescence polarization. The conditions noted are these: FP: 20 mM HEPES pH 7.5, 150 mM NaCl, 0.5 mM EDTA, 1 mM DTT, 0.05% Triton X-100, 20 C, 50 nM peptide, EMSA: 15 mM HEPES pH 7.5, 150 mM NaCl.

As for “Kaposi's Sarcoma Herpesvirus Latency Associated Nuclear Antigen (LANA) peptide, aa. 4-23”, the pKd in data set [1] is 5.62. As for H. sapiens NCP, in data set [2], the pKd was 5.62.
